From the Human Domainome abundance scans (Beltran et al. 2025)
± gives the uncertainty stated by the source.

B1: Neutrophil cytosol factor 2, residues 456 to 514; numbered along this chain, P19878 (parent)
chain: LKKGSQVEALFSYEATQPEDLEFQEGDIILVLSKVNEEWLEGECKGKVGIFPKVFVEDC

Variants of: B1
Test: abundance fitness (aPCA) (normalised: wild type 0, dead -1); higher = more abundant; growth selection in yeast, the domain comes from the species named
Settings: Homo sapiens
LKKGSQVEALFSYEATQPEDLEFQEGDIILVLSKVNEEWSEGECKGKVGIFPKVFVEDC [L40S] showed an abundance fitness of -0.729 ± 0.15.
With LKKGSQVEALFSYEATQPEDLEFQEGDIILVLSKVNEEWMEGECKGKVGIFPKVFVEDC [L40M] the abundance fitness was -0.042 ± 0.19.
LKKGSQVEALFSYEATQPEDLEFQEGDIILVLSKVNEEWPEGECKGKVGIFPKVFVEDC [L40P] showed an abundance fitness of -0.02 ± 0.23.
Work on LKKGSQVEALFSYEATQPEDLEFQEGDIILVLSKVNEEWVEGECKGKVGIFPKVFVEDC [L40V] yielded an abundance fitness of -0.451 ± 0.12.
LKKGSQVEALFSYEATQPEDLEFQEGDIILVLSKVNEEWLEGICKGKVGIFPKVFVEDC [E43I] showed an abundance fitness of -0.567 ± 0.13.
With LKKGSQVEALFSYEATQPEDLEFQEGDIILVLSKVNEEWLEGTCKGKVGIFPKVFVEDC [E43T] the abundance fitness was -0.163 ± 0.11.
For LKKGSQVEALFSYEATQPEDLEFQEGDIILVLSKVNEEWLEGMCKGKVGIFPKVFVEDC [E43M], the abundance fitness was -0.009 ± 0.17.
Work on LKKGSQVEALFSYEATQPEDLEFQEGDIILVLSKVNEEWLEGNCKGKVGIFPKVFVEDC [E43N] yielded an abundance fitness of -0.758 ± 0.22.
With LKKGSQVEALFSYEATQPEDLEFQEGDIILVLSKVNEEWLEGKCKGKVGIFPKVFVEDC [E43K] the abundance fitness was -0.235 ± 0.24.
Work on LKKGSQVEALFSYEATQPEDLEFQEGDIILVLSKVNEEWLEGQCKGKVGIFPKVFVEDC [E43Q] yielded an abundance fitness of -0.078 ± 0.23.
LKKGSQVEALFSYEATQPEDLEFQEGDIILVLSKVNEEWLEGRCKGKVGIFPKVFVEDC [E43R] gave an abundance fitness of -0.521 ± 0.15.
For LKKGSQVEALFSYEATQPEDLEFQEGDIILVLSKVNEEWLEGWCKGKVGIFPKVFVEDC [E43W], the abundance fitness was -0.435 ± 0.32.
Variant LKKGSQVEALFSYEATQPEDLEFQEGDIILVLSKVNEEWLEGLCKGKVGIFPKVFVEDC [E43L] has an abundance fitness of -0.487 ± 0.15.
With LKKGSQVEALFSYEATQPEDLEFQEGDIILVLSKVNEEWLEGHCKGKVGIFPKVFVEDC [E43H] the abundance fitness was -0.314 ± 0.16.
LKKGSQVEALFSYEATQPEDLEFQEGDIILVLSKVNEEWLEGPCKGKVGIFPKVFVEDC [E43P] showed an abundance fitness of -0.818 ± 0.26.
Variant LKKGSQVEALFSYEATQPEDLEFQEGDIILVLSKVNEEWLEGFCKGKVGIFPKVFVEDC [E43F] has an abundance fitness of -0.324 ± 0.1.
For LKKGSQVEALFSYEATQPEDLEFQEGDIILVLSKVNEEWLEGACKGKVGIFPKVFVEDC [E43A], the abundance fitness was -0.035 ± 0.17.
LKKGSQVEALFSYEATQPEDLEFQEGDIILVLSKVNEEWLEGSCKGKVGIFPKVFVEDC [E43S] showed an abundance fitness of 0.025 ± 0.076.
Work on LKKGSQVEALFSYEATQPEDLEFQEGDIILVLSKVNEEWLEGCCKGKVGIFPKVFVEDC [E43C] yielded an abundance fitness of -0.685 ± 0.17.
Work on LKKGSQVEALFSYEATQPEDLEFQEGDIILVLSKVNEEWLEGGCKGKVGIFPKVFVEDC [E43G] yielded an abundance fitness of -0.152 ± 0.11.
LKKGSQVEALFSYEATQPEDLEFQEGDIILVLSKVNEEWLEGVCKGKVGIFPKVFVEDC [E43V] gave an abundance fitness of -0.654 ± 0.15.
LKKGSQVEALFSYEATQPEDLEFQEGDIILVLSKVNEEWLYGECKGKVGIFPKVFVEDC [E41Y] showed an abundance fitness of 0.47 ± 0.079.
LKKGSQVEALFSYEATQPEDLEFQEGDIILVLSKVNEEWLHGECKGKVGIFPKVFVEDC [E41H] gave an abundance fitness of -0.682 ± 0.27.
With LKKGSQVEALFSYEATQPEDLEFQEGDIILVLSKVNEEWLRGECKGKVGIFPKVFVEDC [E41R] the abundance fitness was 0.131 ± 0.083.
Variant LKKGSQVEALFSYEATQPEDLEFQEGDIILVLSKVNEEWLCGECKGKVGIFPKVFVEDC [E41C] has an abundance fitness of 0.14 ± 0.095.
Variant LKKGSQVEALFSYEATQPEDLEFQEGDIILVLSKVNEEWLIGECKGKVGIFPKVFVEDC [E41I] has an abundance fitness of 0.175 ± 0.087.
In the case of LKKGSQVEALFSYEATQPEDLEFQEGDIILVLSKVNEEWLWGECKGKVGIFPKVFVEDC [E41W], the abundance fitness is reported as -0.267 ± 0.23.
LKKGSQVEALFSYEATQPEDLEFQEGDIILVLSKVNEEWLSGECKGKVGIFPKVFVEDC [E41S] showed an abundance fitness of -0.28 ± 0.1.
With LKKGSQVEALFSYEATQPEDLEFQEGDIILVLSKVNEEWLLGECKGKVGIFPKVFVEDC [E41L] the abundance fitness was 0.275 ± 0.083.
For LKKGSQVEALFSYEATQPEDLEFQEGDIILVLSKVNEEWLKGECKGKVGIFPKVFVEDC [E41K], the abundance fitness was 0.367 ± 0.1.
In the case of LKKGSQVEALFSYEATQPEDLEFQEGDIILVLSKVNEEWLQGECKGKVGIFPKVFVEDC [E41Q], the abundance fitness is reported as 0.238 ± 0.3.
In the case of LKKGSQVEALFSYEATQPEDLEFQEGDIILVLSKVNEEWLVGECKGKVGIFPKVFVEDC [E41V], the abundance fitness is reported as -0.02 ± 0.091.
Work on LKKGSQVEALFSYEATQPEDLEFQEGDIILVLSKVNEEWLNGECKGKVGIFPKVFVEDC [E41N] yielded an abundance fitness of -0.635 ± 0.14.
LKKGSQVEALFSYEATQPEDLEFQEGDIILVLSKVNEEWLFGECKGKVGIFPKVFVEDC [E41F] showed an abundance fitness of 0.248 ± 0.083.
Variant LKKGSQVEALFSYEATQPEDLEFQEGDIILVLSKVNEEWLTGECKGKVGIFPKVFVEDC [E41T] has an abundance fitness of -0.527 ± 0.17.
For LKKGSQVEALFSYEATQPEDLEFQEGDIILVLSKVNEEWLMGECKGKVGIFPKVFVEDC [E41M], the abundance fitness was 0.275 ± 0.13.
In the case of LKKGSQVEALFSYEATQPEDLEFQEGDIILVLSKVNEEWLAGECKGKVGIFPKVFVEDC [E41A], the abundance fitness is reported as -0.394 ± 0.14.
Variant LKKGSQVEALFSYEATQPEDLEFQEGDIILVLSKVNEEWLGGECKGKVGIFPKVFVEDC [E41G] has an abundance fitness of -0.157 ± 0.1.
In the case of LKKGSQVEALFSYEATQPEDLEFQEGDIILVLSKVNEEWLEGECEGKVGIFPKVFVEDC [K45E], the abundance fitness is reported as -0.905 ± 0.49.
In the case of LKKGSQVEALFSYEATQPEDLEFQEGDIILVLSKVNEEWLEGECGGKVGIFPKVFVEDC [K45G], the abundance fitness is reported as -0.61 ± 0.16.
In the case of LKKGSQVEALFSYEATQPEDLEFQEGDIILVLSKVNEEWLEGECFGKVGIFPKVFVEDC [K45F], the abundance fitness is reported as -0.669 ± 0.15.
Variant LKKGSQVEALFSYEATQPEDLEFQEGDIILVLSKVNEEWLEGECAGKVGIFPKVFVEDC [K45A] has an abundance fitness of -0.765 ± 0.19.
LKKGSQVEALFSYEATQPEDLEFQEGDIILVLSKVNEEWLEGECCGKVGIFPKVFVEDC [K45C] gave an abundance fitness of -0.191 ± 0.14.
LKKGSQVEALFSYEATQPEDLEFQEGDIILVLSKVNEEWLEGECHGKVGIFPKVFVEDC [K45H] showed an abundance fitness of 0.232 ± 0.12.
With LKKGSQVEALFSYEATQPEDLEFQEGDIILVLSKVNEEWLEGECDGKVGIFPKVFVEDC [K45D] the abundance fitness was 0.065 ± 0.12.
